Laboratory results reported in patent EP4585618A1 (Jiangsu Hengrui Pharmaceuticals Co., Ltd., dated 2025).
Residue numbers refer to the chain shown, from its start. Blank lines part the entries; values can stand above or below the binder they belong to.

Key:
[1] = biological target: T1, His-tagged ILT4 protein extracellular domain: ILT4-His (human, UniProt Q8N423 22-460); assay: screening of chimeric antibodies (ILT4 protein binding, cell binding, ILT4/HLA-G blocking)
T1 construct: Expressed in 293 cells; also called human ILT4-His protein
T1 sequence (Q8N423 other isoform, or with tags, fused parts or gaps limits assumed): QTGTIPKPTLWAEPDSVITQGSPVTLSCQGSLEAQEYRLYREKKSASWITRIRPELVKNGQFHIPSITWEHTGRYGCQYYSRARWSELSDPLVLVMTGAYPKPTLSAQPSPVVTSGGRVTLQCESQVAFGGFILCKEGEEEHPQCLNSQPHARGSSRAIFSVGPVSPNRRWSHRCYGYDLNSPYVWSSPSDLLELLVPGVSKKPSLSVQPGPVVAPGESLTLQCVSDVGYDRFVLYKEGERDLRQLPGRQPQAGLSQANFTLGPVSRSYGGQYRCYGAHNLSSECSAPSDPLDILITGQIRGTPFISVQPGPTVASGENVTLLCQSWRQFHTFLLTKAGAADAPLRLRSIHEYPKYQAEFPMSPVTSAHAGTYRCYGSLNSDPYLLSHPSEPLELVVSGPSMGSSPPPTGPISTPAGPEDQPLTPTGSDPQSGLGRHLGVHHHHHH

[2] = biological target: T1, His-tagged ILT4 protein extracellular …; assay: ELISA, coated ILT4-His 1 µg/mL; Assay 2
[3] = biological target: T1, His-tagged ILT4 protein extracellular …; assay: SPR (Biacore), antibody captured on Protein A chip, ILT4-His as analyte, 1:1 model

EC50 [2]: 0.0621 µg/mL
Top [2]: 1.83 absorbance at 450 nm
B5: chimeric antibody ChP2-G4 (antibody, human IgG4 S228P, kappa, F234A L235A, V domains shown)
VH: EVQLQQSGPELVKPGASVKMSCKASGYTFTDYNMHWVKQSHGKSLEWIGYINPNNGGTTYNQKFKGKATLTVNKSSSTAYMELRSLTSEDSAVYYCASSEYYGSTFLFAYWGQGTLVTVSS
VL: DIVMTQSHKFMSTSVGDRVGITCKASQDVSIAVAWYQQKPGQSPKLLIYSASYRYTGVPDRFTGSGSGTDFTFTISSVQAEDLAAYYCQQHYSTPWTFGGGTKLEIKR
notes: Murine variable regions with hIgG4(LALA) and CL constant regions; also called M P2-G4

EC50 [2]: 0.0729 µg/mL
Top [2]: 2 absorbance at 450 nm
B6: chimeric antibody ChP2-E7 (antibody, human IgG4 S228P, kappa, F234A L235A, V domains shown)
VH: QVQLQQPGTELVKPGASVKLSCKASGYTFTSYWMHWVKQSPGQGLEWIGNINPSNGGPNYNENFKTKATLTVDKSSSTAYMQLNSLTSEDSAVYYCAGGDYYGGSYLFAYWGQGTLVTVSS
VL: B5 VL with I2T, G20S, I21V, S30N, A51S, G68E, A85V, S93T, T94F, W96Y
notes: Murine variable regions with hIgG4(LALA) and CL constant regions; also called M P2-E7

binding result [1]: binds
B9: chimeric antibody ChP2-C4 (antibody, human IgG4 S228P, kappa, F234A L235A, V domains shown)
VH: QVQLKESGPGLVAPSQSLSITCTVSGFSLSTYAIGWVRQPPGKGLEWLGVIWTGGGTSYNSALKSRLSISKDNSKSQVFLKMNSLQTDDTARYYCARGDYGPFAYWGQGTLVTVSS
VL: B5 VL with V15L, G20S, T22S, P40A, Y55H, A85V, W96F, G100S
notes: Murine variable regions with hIgG4(LALA) and CL constant regions; also called M P2-C4

binding result [1]: binds
B10: chimeric antibody ChP2-F4 (antibody, human IgG4 S228P, kappa, F234A L235A, V domains shown)
VH: EVQLVESGGGLVKPGGSLKLSCAASGFTFSDYGMHWVRQAPEKGLEWVAYISSGSRIIYYADTVKGRFTISRDNAKNTLFLQMTSLRSEDTAMYSCARFYNYAHYTMDYWGQGTSVTVSS
VL: B5 VL with G20S, I31T, A84T, A85L, Q90H, W96P
notes: Murine variable regions with hIgG4(LALA) and CL constant regions; also called M P2-F4

Kd [3]: 0.158 nM
koff [3]: 7.2e-05 s⁻¹
kon [3]: 457000 M⁻¹ s⁻¹
B11: humanized antibody huP1-G7 (antibody, human IgG4 S228P, kappa, F234A L235A, V domains shown)
VH: EVQLQESGPGLVKPSQTLSLTCTVSGYSITSGYYWNWIRQHPGKGLEWIGYISYDGGNNYNPFLKNRVTISRDTSKNQFSLKLSSVTAADTAVYYCAREGGSSWEYYGMDYWGQGTTVTVSS
VL: DIQMTQSPSSLSASVGDRVTITCRASENIYRNLAWYQQKPGKAPKLLLYAATNLADGVPSRFSGSGSGTDFTLTISSLQPEDFATYYCQQFWGSPYTFGGGTKVEIKR
notes: Full chains; also called P1-G7H1L1

The next lines start with the binder.

B1: chimeric antibody ChP2-C6 (antibody, human IgG4 S228P, kappa, F234A L235A, V domains shown)
VH: EVQLQQSGPELVKPGASVKMSCEASGYTFTDYYIHWVKQSHGESLEWIGYIYPDNGYNGYNQKFKGKATLTVDKSSNTAYMELRSLTSEDSAVYFCTRRGDYSGVHFDYWGQGTALTVSS
VL: DIVLTQSPASLAVSLGQRATISCRASESVNNYGVGFLHWYQQKPGQPPKLLIYRASTLESGIPARFSGSGSRTDFTLTINPVETDDVATYYCQHSYKDPPWTFGGGTKLEIKR
notes: Murine variable regions with hIgG4(LALA) and CL constant regions; also called M P2-C6
binding result [1]: binds

B2: chimeric antibody ChP1-B4 (antibody, human IgG4 S228P, kappa, F234A L235A, V domains shown)
VH: QVQLKQSGPGLVQPSQSLSITCTVSSFSLTNYGVHWVRQSPGKGLEWLGVIWTGGSTDYNAAFISRLSIIRDNSKSQVFFKMNSLQADDTAMYYCAITTVVTAMDYWGQGTSVTVSS
VL: B5 VL with G20S, S30N, A34V, S50A, A85V, T94S, W96Y
notes: Murine variable regions with hIgG4(LALA) and CL constant regions; also called M P1-B4
binding result [1]: binds

B3: chimeric antibody ChP2-E8 (antibody, human IgG4 S228P, kappa, F234A L235A, V domains shown)
VH: EVQLLESGGGLVKPGGSLKLSCAASGFTFSDYGIHWVRQAPEKGLEWVAYISSGSSIINYADTVKGRFTISRDNAKNTLLLQMTSLRSEDTAMYYCARGPNYYGSSYLLVYWGQGTLVTVSS
VL: B5 VL with G20S, S30N, K39R, A85V, S93N, T94I
notes: Murine variable regions with hIgG4(LALA) and CL constant regions; also called M P2-E8
binding result [1]: binds

B4: chimeric antibody ChP2-B3 (antibody, human IgG4 S228P, kappa, F234A L235A, V domains shown)
VH: QVQLKQSGPGLVQPSQSLSITCTVSGFSLTNYGVHWFRQSPGKGLEWLGMIWSGGNTDYNAAFTSRLIITKDNSKSQVFFKMNSMQADDTAIYYCARGDYGSSSAYWGQGTLVTVSS
VL: B5 VL with G20S, A85V, T94N, P95T, W96L, G100A
notes: Murine variable regions with hIgG4(LALA) and CL constant regions; also called M P2-B3
binding result [1]: binds

B7: chimeric antibody ChP2-C10 (antibody, human IgG4 S228P, kappa, F234A L235A, V domains shown)
VH: QVQLQQPGAELVKPGASVKLSCKASGYTFTSYWMHWVKQRPGQGLEWIGVIHPNSDTTNYNEKFKNKATLTVDKSSSTAYMQLSSLTSEDSAVYYCATRYDYAYYAMDYWGQGTSVTVSS
VL: B5 VL with G20S, S30T, I31T, A85V, Y87H, P95S, W96P, K103M
notes: Murine variable regions with hIgG4(LALA) and CL constant regions; also called M P2-C10
binding result [1]: binds

B8: chimeric antibody ChP1-B9 (antibody, human IgG4 S228P, kappa, F234A L235A, V domains shown)
VH: QVQLKQSGPGLVQPSQSLSITCTVSGFSLTSYGVHWVRQSPGKGLEWLGVIWSGGNTDYNAAFMSRLRINKDNSKSQVFFKMNSLQGSDTAIYYCATPYDVVPFAYWGQGTLVTVSS
VL: B5 VL with G20S, S30N, Q42L, D60G, Q79K, A85V, T94I, W96F, G100A
notes: Murine variable regions with hIgG4(LALA) and CL constant regions; also called M P1-B9
binding result [1]: binds
